assay: soluble on expression in E. coli; label from the status in PepcDB or PDB records

Sequence | soluble on expression in E. coli
MKCIAIDDEPLALKQLTDYISRVPFLSLVKSCQDAFEAMKVLADEEIDLIFVDINMPDLNGLDFIRSLISRPMVVFTTAYSEYAVDGFKLDAVDYLLKPFEFQDLLKAADKARKQYEYRMLEQQGELGNSSQIKGDSLFVKSDYKVVRIDVKNIRYIEGMSEYVRIFIEGEDKPVITLASLQKMEERLPTYFMRVHRSYIVNLRKITEVSRLRIIFDRNTYIPVGDNYKERFAEHISKLSFS | not soluble
MKDDIKRRIDLAAGRKRSQLVLKNAQILNVFSHEIISGDIAIDQGKIVGIGNYNGLENIDLEGKVVVPGLIDGHVHMESAMVTPGQFARAIVPRGTTTIVADPHEIANVCGIPGIEYMLKASEGMPLNVYMMLPSCVPATSFENAGANLKAKDLAPLINHEKVLGLGELMDYPGVIAGEESIIDKIMIAEGKMIDGHGPDIKEEALNAYVAAGVRTEHECSTVEEMINRLRLGMYILIREGSAARNLKTLVRGITPENMRRCLFCTDDKHPEDILEAGHIDHNVRVAIKEGLDPISAVKMATINAAECYGLKDLGAIAPGYRADLVVLDNLETFHVTKVFKDGKLVAQDGKAFFEAQSTEDHTVTQTVNAKELTPEDLVLSLETDIVNVIKLLPHSLVTQRVSRKVEVKEGTFRYHEDLDILKLAVIERHKRTGNIGLGLVEDFRLKGGAIASTVAHDSHNIIVIGDNDEDMLLAVNELNTVGGGITICSKGEILQTLSLPIAGLMAQGTMEEVNEQLKQMLEIAYKKLGINEQIDPFMTLSFLALPVIPELKLTDLGLFDVKNFRFISLNR | not soluble
MKDLGAEHLAGHEGVQLLGLLNVYLEQEERFQPREKGLSLIEATPENDNTLCPGLRNAKVEDLRSLANFFGSCTETFVLAVNILDRFLALMKVKPKHLSCIGVCSFLLAARIVEEDCNIPSTHDVIRISQCKCTASDIKRMEKIISEKLHYELEATTALNFLHLYHTIILCHTSERKEILSLDKLEAQLKACNCRLIFSKAKPSVLALCLLNLEVETLKSVELLEILLLVKKHSKINDTEFFYWRELVSKCLAEYSSPECCKPDLKKLVWIVSRRTAQNLHNSYYSVPELPTIPEGGCFDESESEDSCEDMSCGEESLSSSPPSDQECTFFFNFKVAQTLCFPSLEHHHHHH | not soluble
MKDLIELFWLRYTELQSAVGKNESDKIAVLERELELLLERIVGRKTESSEDIREQFRFAIDLLNHEAEDLGCVQRNSELLRTLVDRYVGMPLKAKVVGDEDEDTLAWHHRHLILDEDMLNDLDEPVVIVSPGYRVSFANALDAFQRNAPEGLIGCHIAELVGVHRFQNILREKLDNCFKGDTSKYTYAEDENGRTVVKSLEMSPCYSSAYKLVGAMVVIREIADRRRRAAG | not soluble
MKDQNGVASTDDSVLPSWSNPDVGQFIVSTYNEYEYKRIPFRELEFGCLLCRMRTFNHEGMKKHLRDHVVHKKSSCEHEKPGKTGIHHQVDKAGNGVMPENGQLVQCYIEIKLADCYTSWSNYESQNPIIFKIGFGEVIPGLDIGIPKMKVGEIATFHVSGKYGYGRAGFRGLIPRNASLTCKVRLFNCSWDSYAKIGVDRQILVQGDNVTKSKNGQTVTCHYVLILVDGTKIDSSRDRETPFKFKIGKGEVIKGWDQGVAQMSVKEKSKLTIAPAFGFEKGKLPAGIPA | not soluble
MKDTFRLENQTIYFGTERAISASPQTIWRYLTETDKLKQWFPELEIGELGVNGFWRFILPDFEETMPFTDYAEEKYLGVTWDTGIIYFDLKEQAPHQTLLVFSESLPENFTTPRHKDIAGWSIVLNRLKQVVETPDAAPEKIDFPQIENHYLEKLTNLEN | soluble
MKEDPRIIKTLSKLQKAFVMLLKTYDAGDINVRQISDEAGVTRGAFYSHFSDKKEFVNFTINELVGSLFNSSLEHHHHHH | not soluble
MKEEAVRVIEEVLKQGRTAMVEYEAKQVLKAYGLPVPEEKLAKTLDEALEYAKEIGYPVVLKLMSPQILHKSDAKVVMLNIKNEEELKKKWEEIHENAKKYRPDAEILGVLVAPMLKPGREVIIGVTEDPQFGHAIMFGLGGIFVEILKDVTFRLVPITEKDARKMIQEIKAYPILAGARGEEPADIDAIVDMLLKVSKLVDDLKDYIKEMDLNPVFVYNKGEGAVIVDSRIILKPKD | soluble
MKEEEKTRLVIVQGPTASGKSALALELAERIGGEIVNADSMQVYRGMDIGTAKPSQEERRRVPHHLYDIVDPKVNFTAADFREHASRAIADIERRGKRVILVGGTGLYIRILTQGLVASPGGDDNIRRELEDQAHGEGLESLHRRLAAVDPVAAARLHPNDGVRIVRALEVFLLTGRPLSAFQEAHRFADEPYRCLKLGITVERELLYRRVEERVDRMIAEGLVEEVRGLLSAGYPATLKAMGSIGYREICAHLAGEFSLDEAMRLIKQNTRQYAKRQMTWFRRDSEIIWVEYPGKFDSILSTVMGFYHLEHHHHHH | soluble

From the DeepSol protein solubility set
